Test: soluble fraction after stress (log2 fold change); higher = more stays soluble; pooled small domains, quantitative proteomics
Details: stress: 50 degC
Outline: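 Pooled custom libraries of small protein domains were each held under stress at 50°C. The read-out, high-throughput quantitative proteomics, tracked how much of each protein stayed soluble. This is reported as a base-two log fold change used to indicate aggregation propensity. Higher values mean more protein remains in solution.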

Sequence | soluble fraction (log2)
HMEEDGAPLESREVLLDQAISQGKGTQWTIATETKLEDHIVSGAYSTDGKVTLAVFSPLGDGKYEFSSSVN | 0.0751
HMPMTLGENIARLRTQKDWSQGDLADALGISRQSISKWETDTSIPELEKLIKLSELFGVTLDQLVRGE | -0.193
HMFQPEQISKLNELETLVLDFIIKSPDKVQKATIRSLATQLHVSTTTIVRMSTKLGFNGWSELKFFLKNQS | -2.15
HMNLPISDREKELLTLLSKGLLYKEIASKLDITIGTVKQHIHNIYHKLHVSNKTEALNLFNK | -0.685
HMFAERLKELRKMRRFSQHALAERLGISQQAVGKWETGKSTPDPATLREIADIFEVSVDLLLGR | -0.247
HMTTAASIGRLVRDARKQRGLTQHELASLLSTSQSAIHRIESGNQNLSLEMINRIAQALESPLIVPGG | -0.163
HMDEARLAVASNLIRLRTDAGMTQAELGEKLNYSDKTISKWERAEAIPDAFVLKQIGELFHVSVDFLLRTH | -0.37
HMGHTKLVVDIVEELKLEQGALLPILHAIQDELGYVPTKSVPFIADSLNLSRAEVHGVISFYHYFR | 0.15
HMSGQKDVPDLYGMTVKQAKKEVEAAGFKLKEGKEVYSNDYSKGQIAEQDPESGSKAKKGSSITVHVSKG | 0.0677
HMNNSSIGERLKYQRKIKGYSQEELADRTNVTVRTIQRIEKEEVSPHLNTIKLLAIALDIEVDELVAL | -1.25
HMSSFIEAIKQSGTDSLDVIMKNGRVYRYVGIDADRLGYLLEPHQQKLSLEESIGRFYIDYIKGIYEAIE | -1.57
HMTASVTDAMFELIDELPKLGKTSFRQLTADLVDRLQVVVTFLAVLELYKQGHVELDQSERFGDITVVWTG | -0.0255
HMLDPIQEGKKMLNSRLSGFGITPNTRLMNKLLAAYNISSREEFYGRIGAGIEDLSTLREVLLKGT | -0.284
HMHLLPAREQVAAYLRKAILRQEIREGTILNLADTARQMGVSVTPVREALQLLAAQGLVRLRPNKGAVVMG | -0.891
HMLIDSNNYFFYKVKPKEGFYSLQKKLGVNRSEIEKHNPSLINEVLKEGMILKIPKYLLNFDLN | -0.297
HMQEVKVRLKPDYLGEVLIKVISDKGELKAELFVSNSQVRSLLRAYAVEFQNQIRDQGYNFSEINVYR | -0.551
HMRDPFDALSARERAVASLVQRGLRNKEVASELGLTEGTVKVHLHKVFDKLGIRGRTELILLAQER | -0.79
HMRKIKEVLRLKFETGFSHERIAAAVGVSKGAVTKYVQRAVAAGLGWPLAPERDDAALEALLFPH | ≥ 0.62
HMSYFIFDGVLNLGKQYELKGEESSHITKSRRLRPGDSFLIQDQEGQRFEAILKSFDRNSLIFTPHKPTA | -0.0922

Sequence | soluble fraction (log2)
HMNSKMTYSDLIGNIEQGNVSSVELASDGKSATVTLTDNSQKQVNIPSLDSFVTYVQDHIKAGTLSVEE | 0.000127
HMEDPFATLGVHREASLDEIKRAYRRLAMFWHPDRNPEAVAGTEFKRVHAAYELLLDPQRLAEWQQAQAT | 0.04
HMFDLENIRLTLARRLNVAAHLRPKYVAGFTLLLKQNFPEQNAEDLLNRLEHNQWLKVNQREIEYSPRLLM | -1.58
HMQMSDTGAIEAMVKEALDENPQAIEDFKNGKGKALGFLMGQVMKKSKGQANGGIVNKLIKEELQKRIG | 0.181
HMNTLGTNIAKLRESQKLTQEELGKLSGVSRVSIYKIETGQSTPRDTTLQNIAEALHTTPSALRS | 0.142
HMQTMNKTNISNFEKYLNSGDVSEVIVVRNKSSVRVTLTPEALRSSEHQAVVGKNILGQENIKGPHYQFEV | -0.0672
HMDVYKRQKLRNFIESLFEDAPKNKQTIELKEEMLQNLIDKYNDLVDSGKSSEAAYNIATAS | -0.0392
HMNKFADLAGNIIYNENGVEVFNFGKYKGQPVAEVFKKDIGYYGWIQNADFPRYTKKVFTAIQLKSK | -1.22
HMPEPPRVGETLAALRQDRALSLDELSRQAGVSKSMLSQIERNQANPTVAVVWRLANALGVPMAELLGA | -0.108
HMERFMEFVITDTQQGQRLDVVLTETTEHLGSRSHMQRSIRAGLVSIDGITTTRASTKVSSGQIIRVEPT | -1.49
HMDWNPVRDITAHQVLAILQATHIRAPTVAAEAKRTLSSIFQFAVATLRADIDPVWPVRNALPKNKT | 0.00605
HMKGAADPAIKQKVLDYLDTVEKAKSKEIAKAISEEKSAVDLAVKELAFEDKVEYLYITTTFVALKGKVA | -0.168
HMNKYQFESKIHIYRATKRMTQQELADLVGVSRQTIMQLERNRYNPSMMLAYGIAKVFDVTIEDLFDFSEV | -2.05
HMISDAEWKIMNVLWEEQPRTMMQITKELQEETGWTKHTVMTYLKRMESKKIIHYVEGEKAKLYYS | -0.0967
HMTKYEGLSLDLIIDGVVITHNLKLAKLDMNWLLDRLKENGWDNPKDIFYAYIDTAGNFRFQPKLKASRTR | 0.202
HMGRYATVPDVVGSTPEVARELIRSEGLRYVLSEETVYSDSDTGTVGRTDPESGTRMSADDEVVVYLS | 0.0355
HMIQTKNVTFTINEKTKIANIPLKSLKILSQEDNRITLSYEKNSLKIDEIISYFSDKNINILDITTD | -0.451
HMNDLKVGELAKRGNVTAETVRHYTREGLLSPTRHPDNGYQLFSATDLERLHFIQRARKLGFSVAEIRDIL | -0.619
HMDTEVVMINVVGMNIDKAKNSLNHKNILYKISYQDVSEGENNVVLKQSISSNTKIKKGQVVSLVVGKLN | 0.352
